Legend:
[1] = target: human PD‐L1 (hPD‐L1), soluble, biotinylated (human) (UniProt Q9NZQ7); assay: SPR
[2] = target: human PD‐L2 (hPD‐L2), soluble (human) (UniProt Q9BQ51); assay: SPR
[3] = target: human PD‐L2 on mature dendritic cells (human) (UniProt Q9BQ51); assay: flow cytometry on cells
[4] = target: human PD‐L1 on the surface of tumor cells (human) (UniProt Q9NZQ7); assay: flow cytometry on cells

| Substance | Kd [1] [nM] | T1/2 [1] [s] | koff [1] [s⁻¹] | Kd [2] [nM] | T1/2 [2] [s] | koff [2] [s⁻¹] | percent reduction of the MFI of anti-PD-L2 Ab (M1H18) at 1.0 × 10^-5 mol/L L5B7 [3] [%] | EC50 [4] [nM] |
| --- | --- | --- | --- | --- | --- | --- | --- | --- |
| hPD‐1 A132I point mutant (domain or fragment) | 9.9 |  |  |  |  |  |  |  |
| hPD‐1 with the combined mutation of G124V and A132I (domain or fragment) | 0.97 |  |  |  |  |  |  |  |
| L4C11, PD‐1 variant with a single‐site mutation from glycine to valine (G124V) (designed binder) | 93.7 | 8.25 | 0.121 |  |  |  |  |  |
| L5B7, high‐affinity PD‐1 variant (G124S, K131Y, A132I) (designed binder) | 0.687 |  | 0.002 | 13.7 | 78.1 | 0.0128 | > 40 | 2.9 |
| soluble human PD‐1 (hPD‐1) (domain or fragment) | 2650 |  |  | 1050 | 2.68 |  |  | 4860 |
